According to the supplement of paper PMC11780869:

System: Bacillus subtilis
Assay: cleaved RNA product abundance (RNA/gDNA barcode ratio) relative to median wild-type variant (ratio to wild type); higher = more accumulation of the downstream cleavage product
In short: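 The B. subtilis chromosome carried reporter mRNAs, truncated aprE or tetM, containing barcoded RNase Y cleavage-site windows mutagenized using oligos with a 9% error rate. After growth in LB at 37°C from OD600 0.0003 to 0.3, cleaved RNA was gel-selected, reverse transcribed and barcode-sequenced next to genomic DNA barcodes, with UMI collapsing. Each construct's RNA:gDNA barcode ratio was scaled to the median construct with the unmutated site. That scaled ratio is reported as cleaved product abundance.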

[1] = experiment (reporter, strain, medium): exp 2b: truncated aprE reporter, strain BJT200, cleavage site: cggR-gapA (positions -7 to +36 mutated)
[2] = experiment (reporter, strain, medium): exp 4a: truncated aprE reporter, strain BJT201 with 2% xylose (RNase J1 expressed), cleavage site: cggR-gapA (positions -7 to +36 mutated)
[3] = experiment (reporter, strain, medium): exp 8a: truncated aprE reporter, strain BJT201 with 2% xylose (RNase J1 expressed), cleavage site: glnRA (positions -5 to +31 mutated)

Row | Sequence | cleaved RNA product abundance [1] | cleaved RNA product abundance [2] | cleaved RNA product abundance [3] | also measured
1 | ACAGACGAAGGAGCCGCAAAGAAGTTATTAAGGGATGAAAAATCCCTCAATATAAATGTCTCTCACTTATTTAAA | 0.304 | 0.622 |  | 
2 | ACAGACGAAGGAGCCGCAAAGAACTTATTAAGGGATGAATAATCCCTCAAGATAAATATCTCTCACTTATTTAAA | 0.165 | 0.185 |  | 
3 | ACAGACGAAGGAGCCGCAAAGAAGTTATTAAGGGATGAATATTCCGTCAATATAAATATCTCTCACTTATTTAAA |  | 0.194 |  | 
4 | ACAGACGAAGGAGCCGCAAAGAAGTTATTAAGGTATGAATAATCCCTCAATATAAAAATCTCTCACTTATTTAAA | 0.107 | 0.153 |  | 
5 | ACAGACGAAGGAGCCGCAAAGAAGTTATTTAGGGATGAATAATCACTCAATATAAATATCTCTCACTTATTTAAA |  | 0.137 |  | 
6 | ACAGACGAAGGAGCCGCATAGAAGTTATTAAGGGATGAATAATCCCTCAATATAAACATCTCTCACTTATTTAAA |  | 1 |  | 
7 | ACAGACGAAGGAGCCGCAAAGAAGTTATTAAGGTATGAATAATCACTCAATATAAATATCTCTCACTTATTTAAA |  | 0.142 |  | 
8 | ACAGACGAAGGAGCCGCAAAGAAGTTATTAAGGGATGAATAAGCCCTAAATATAAATATCTCTCACTTATTTAAA | 0.342 | 0.528 |  | 
9 | ACAGACGAAGGAGCCGCAAAGAAGTTATTAAGGGATGAATAATCCCTCAATATAAATATCTCTCCTTATTTAAAG | 0.315 |  |  | 
10 | CGACATGTCCCGCTTCTTTCATTAATCCGTTAGCAACTGTTTTGCGATATACATTTACTTTTTAAGAGGAGGAAT |  |  | 0.55 | 
11 | ACAGACGAAGGAGCCGCAAAGAATTTATTAAGGGATGACTAATCCCTCAATATAAATATCTCTCACTTATTTAAA | 0.3 |  |  | 
12 | CGACATGTCCCGCTTCTTTCATTAATCCCTTAGAAACTGTTTTGCTATATACATTTACCTTTTAAGAGGAGGAAT |  |  | 0.173 | 
13 | CGACATGTCCCGCTTCTTTCATTAATCCGTTAGCAACTGTTTTGCCATATACATATACCTTTTAAGAGGAGGAAT |  |  | 0.198 | 
14 | ACAGACGAAGGAGCCGCAAAGAAGTTATTAAGGGATTAATAATCCCTCAATATAAAGATCTCTCACTTATTTAAA | 0.486 | 0.818 |  | 
15 | CGACATGTCCCGCTTCTTTCATTAATTCGTTAGCAACTGTTTTGCTATATTCATTTACCTTTTAAGAGGAGGAAT |  |  | 0.627 | 
16 | ACAGACGAAGGAGCCGCATAGAAGTTATTAAGTGATGAATAATCCCTCAATATAAATATCTCTCACTTATTTAAA | 0.121 | 0.0818 |  | 
17 | CGACATGTCCCGCTTCTTTCATTAATCCGTAAGCAACTGTTTTGCTATATATATTTACCTTTTAAGAGGAGGAAT |  |  | 0.449 | 
18 | CGACATGTCCCGCTTCTTTCATTAATCCGTTACCAACTGTTTTGCTATATACATTTAACTTTTAAGAGGAGGAAT |  |  | 0.282 | 
19 | CGACATGTCCCGCTTCTTTCATTAATACGTTAGCAAATGTTTTGCTATATACATTTACCTTTTAAGAGGAGGAAT |  |  | 1.26 | 
20 | ACAGACGAAGGAGCCGCAAAGAAGTTATTAAGGGATGAATAATTCCACAATATAAATATCTCTCACTTATTTAAA |  | 0.148 |  | 
21 | ACAGACGAAGGAGCCGCAAAGAAGTTATTAAGGGATGAATAATCCCTCAATATATAGATCTCTCACTTATTTAAA |  | 0.77 |  | 
22 | ACAGACGAAGGAGCCGCAAAGAAGCTATTAAGGGATGAATACTCCCTCAATATAAATATCTCTCACTTATTTAAA |  | 0.458 |  | 
23 | CGACATGTCCCGCTTCTTTCATTAATCCCTTAGCAACTGTTTTGCTATATACATTTAACTTTTAAGAGGAGGAAT |  |  | 0.237 | 
24 | ACAGACGAAGGAGCCGCAAAGAAGTTATTAAGGAATGAATAATACCTCAATATAAATATCTCTCACTTATTTAAA | 0.121 | 0.124 |  | 
25 | CGACATGTCCCGCTTCTTTCATTAAGCCGTAAGCAACTGTTTTGCTATATACATTTACCTTTTAAGAGGAGGAAT |  |  | 0.519 | 
26 | ACAGACGAAGGAGCCGCAAAGAAGTTATTAAGGGAGGAATAATCCCTGAATATAAATATCTCTCACTTATTTAAA |  | 0.635 |  | 
27 | CGACATGTCCCGCTTCTTTCATTAATACGTTAGCAAGTGTTTTGCTATATACATTTACCTTTTAAGAGGAGGAAT |  |  | 0.882 | 
28 | ACAGACGAAGGAGCCGCAAAGAAGTTATTAAGGGATGAATAATCCCTCAATATAAAAATCTCTCACTTATTTAAA | 0.906 | 0.794 |  | cleaved RNA product abundance (experiment (reporter, strain, medium): exp 6: tetM reporter, strain 168, cleavage site: cggR-gapA (positions -7 to +36 mutated)): 0.602
29 | ACAGACGAAGGAGCCGCAAACAAGTTATTAAGAGATGAATAATCACTCAATATAAATATCTCTCACTTATTTAAA | 0.106 | 0.126 |  | 
